The record followed here is patent US20260258115A1 (MAPP BIOPHARMACEUTICAL, published 2026).

Where a chain is given by its changes, count along the chain named.

The target of experiment [1] is T1, RSV prefusion F (preF), subtype B (respiratory syncytial virus subtype B).
T1 construct: also called Prefusion subtype B
The experiment in a line: BLI, IgG.

Experiment [2] has as its target T2, RSV postfusion F (postF), subtype A (respiratory syncytial virus subtype A, UniProt P03420 26-513).
T2 construct: also called Postfusion subtype A; F deltaFP
The experiment in a line: BLI. For orientation: BLI is a label-free optical method that tracks binding on a fibre tip over time.

Experiment [3] has as its target RSV F on RSV subtype A virus (mKate-RSV A2) (respiratory syncytial virus A2, UniProt P03420 26-574). Kind of experiment: cell-based or functional assay.
Experiment [4] deals with RSV F on RSV subtype B virus (mKate-RSV B 18537) (respiratory syncytial virus B 18537, UniProt P13843 26-574). Kind of experiment: cell-based or functional assay.

B1: ADI-19509 (antibody, V domains shown)
VH: EVQLVESGGGLVKPGGSLRLSCAASGFTFSSYSMNWVRQAPGKGLEWVSSISSSSSYIYYADSVKGRFTISRDNAKNSLYLQMNSLRAEDTAVYYCASSRRSLTGDRGGWFDPWGQGTLVTVSS
VL: QSVLTQPPSVSGAPGQRVTISCTGSSSNIGAGYDVHWYQQLPGTAPKLLIYGNSNRPSGVPDRFSGSKSGTSASLAITGLQAEDEADYYCQSYDSSLSGWVFGGGTKLTVL
notes: full-length IgG
As to B1, binding in experiment [1] was characterised by a dissociation constant (Kd) of 1.58 nM. For the same molecule, the binding result in experiment [2] was “no binding”. Moreover, in experiment [3], the “Neut IC50 subtype A” value is 3.42 µg/mL. The “Neut IC50 subtype B” value in experiment [4] turned out to be 1.56 µg/mL.

B2: ADI-24792 (antibody, V domains shown)
VH: EVQLVESGGGLVKPGGSLRLSCAASGFIFSDYYMSWIRQAPGKGLEWVSNISGGSSFTNYADSVKGRFTISRDNAKNSLYLQMNSLRAEDTAVYYCARDLGYCSSNSCLDAFDIWGQGTTVTVSS
VL: B1 VL with S54T, K68R, W100S, V101L, L108V
notes: full-length IgG
For the molecule B2, in experiment [1], binding was put at a Kd of 1.83 nM. Besides, in experiment [2], the binding result is “no binding”. The “Neut IC50 subtype A” value in experiment [3] is 0.27 µg/mL. In experiment [4], the “Neut IC50 subtype B” value is 0.19 µg/mL.

B3: ADI-24835 (antibody, V domains shown)
VH: EVQLVESGGGLVKPGGSLRLSCAASGFPFSTSSMNWVRQAPGKGLEWVSSISSSSSYIDYADSVKGRFTISRDNAKNSLYLQMNSLRAGDTAVYYCARVPRSDWYYFDYWGQGTLVTVSS
VL: B1 VL with L4V, L48F, G52D, S54K, N55Y, W100Y, G104T
notes: full-length IgG
For B3, binding in experiment [1] was characterised by a dissociation constant (Kd) of 5.55 nM. The binding result in experiment [2] is on record as “no binding”. In experiment [3], the “Neut IC50 subtype A” value stood at 0.63 µg/mL. In addition, the “Neut IC50 subtype B” value in experiment [4] came to 1.06 µg/mL.

B4: ADI-24832 (antibody, V domains shown)
VH: EVQLVESGGGLVKPGGSLRLSCAASGFTFSSYSMNWVRQAPGKGLEWVSSISASSSYIFYSDLVKGRFTISRDNAKNSLYLQMNSLRAEDTAVYYCARAGYYYGSGSYYVDYWGQGTLVTVSS
VL: B1 VL with T19A, D94G
notes: full-length IgG
For B4, the equilibrium dissociation constant (Kd) (in general, the free concentration of one partner at which half of the binding sites on the other are occupied at equilibrium, for simple one-to-one binding) in experiment [1] amounted to 1.95 nM. The binding result in experiment [2] is reported as “no binding”. Moreover, the “Neut IC50 subtype A” value in experiment [3] was found to be 0.49 µg/mL. Besides, in experiment [4], the “Neut IC50 subtype B” value was 0.24 µg/mL.

B5: ADI-19510 (antibody, V domains shown)
VH: EVQLVESGGGLVKPGGSLRLSCAASGFSLSSYYMNWVRQAPGKGLEWVSSISSSSTYINYADSVKGRFTISRDNAKNSLYLQMNSLRAEDTAVYYCARGGSITIFGVVFDSWGQGTLVTVSS
VL: B1 VL with Q1S, S2Y, V3E, S25T, G52V, W100G, G104T, L108V
notes: full-length IgG; also called Ab 210
Molecule B5 returned a Kd in experiment [1] of 0.239 nM. Also, the binding result in experiment [2] is “no binding”. Further, in experiment [3], the “Neut IC50 subtype A” value stood at 0.16 µg/mL. Moreover, the “Neut IC50 subtype B” value in experiment [4] was 0.83 µg/mL.

B6: ADI-24817 (antibody, V domains shown)
VH: EVQLVESGGGLVKPGGSLRLSCAASGFTFSSYSMNWVRQAPGKGLEWVSSISSSSSYIYYADSVKGRFTISRDNAKNSLYLQMNSLRAEDTAVYYCARDSMALLYSNYWFDPWGQGTLVTVSS
VL: B1 VL with L4V, W100S
notes: full-length IgG
The molecule B6 came in with an equilibrium dissociation constant (Kd) in experiment [1] of 9.23 nM. For the same molecule, the binding result in experiment [2] was “no binding”. Further, the “Neut IC50 subtype A” value in experiment [3] stood at 2.2 µg/mL. In addition, the “Neut IC50 subtype B” value in experiment [4] is 4.4 µg/mL.

B7: ADI-24814 (antibody, V domains shown)
VH: EVQLLESGGGVVQPGRSLRLSCAASGFTFNSYTMHWVRQAPGKGLEWVAVISYDGSNKYYADSVKGRFTISRDNSKNTLYLQMNSLRAEDTAVYYCARGRPYDFWSGYYTDYYYYMDVWGKGTTVTVSS
VL: EIVLTQSPGTLSLSPGERATLSCRASQSVYSNYLAWYQQKPGQAPRLLIYGASSRATGIPDRFSGSGSGTDFTLTISRLEPEDFAVYYCQQCGSSWTFGQGTKVEIK
notes: full-length IgG
In turn, B7 yielded an equilibrium dissociation constant (Kd) in experiment [1] of 2.39 nM. The binding result in experiment [2] is reported as “no binding”. In addition, the “Neut IC50 subtype A” value in experiment [3] was 0.73 µg/mL. Also, the “Neut IC50 subtype B” value in experiment [4] worked out at 0.32 µg/mL.

B8: ADI-25495 (antibody, V domains shown)
VH: QVQLVQSGGGLVKPGGSLRLSCAASGFTFSSYSMNWVRQAPGKGLEWVSSISSSSSYIYYADSVKGRFTISRDNAKNSLYLQMNSLRAEDTAVYYCARGYCTNGVCYLDAFDIWGQGTTVTVSS
VL: QSVLIQPASVSGSPGQSITISCTGTSSDVGGYNYVSWYQQHPGKAPKLMIYDVSNRPSGVSNRFSGSKSGNTASLTISGLQAEDEADYYCSSYTSSSTPVVFGGGTKVTVL
notes: full-length IgG
For B8, the Kd in experiment [1] stood at 6.41 nM. In experiment [2], the binding result was “no binding”. Further, in experiment [3], the “Neut IC50 subtype A” value stood at 0.24 µg/mL. Besides, the “Neut IC50 subtype B” value in experiment [4] was 5.6 µg/mL.

B9: ADI-25484 (antibody, V domains shown)
VH: EVQLVESGGGLVKPGGSLRLSCAASGFTFSSYSMNWVRQAPGKGLEWVSSISSSSSYIYYADSVKGRFTISRDNAKNSLYLQMNSLRAEDTAVYYCARSIAVAGTGYGMDVWGQGTTVTVSS
VL: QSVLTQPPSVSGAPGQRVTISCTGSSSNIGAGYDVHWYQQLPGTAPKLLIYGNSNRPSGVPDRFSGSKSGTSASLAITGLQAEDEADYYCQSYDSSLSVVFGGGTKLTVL
notes: full-length IgG
Take B9: the Kd in experiment [1] turned out to be 18.4 nM. In addition, in experiment [2], the binding result is on record as “no binding”. For the same molecule, in experiment [3], the “Neut IC50 subtype A” value came to 15.3 µg/mL. Also, the “Neut IC50 subtype B” value in experiment [4] was 8.58 µg/mL.

B10: ADI-19458 (antibody, V domains shown)
VH: EVQLVESGGGRVKPGGSLRLSCAASGFTFRSYSMNWVRQAPGKGLEWVSSISSSSSYINYADSVKGRFTISRDNAKNSLYLQMNSLRAEDTAVYYCARDGSGMTIFGVVIDYWGQGTLVTVSS
VL: QSVLTQPPSVSGAPGQRVTISCTGSSSNIGAGYDVHWYQQLPGTAPKLLIYGNSNRPSGVPDRFSGSKSGTSASLAITGLQAEDEADYYCQSYDRSLTVVFGGGTKLTVL
notes: full-length IgG
In experiment [1], B10 displayed a Kd of 0.243 nM. Besides, in experiment [2], the binding result is recorded as “no binding”. Moreover, the “Neut IC50 subtype A” value in experiment [3] amounted to 0.04 µg/mL. In experiment [4], the “Neut IC50 subtype B” value came out at 0.07 µg/mL.

B11: ADI-24828 (antibody, V domains shown)
VH: EVQLVESGGGLVKPGGSLRLACAASGFSFRSYRMNWVRQAPGKGLEWVSSISSSSSYIDYADSVKGRFTISRDNAKNTVYLQVNSLRAEDTAVYYCARDGRTIFGVVIDYWGQGTLVTVSS
VL: B10 VL with S54N, A76V, R95S, T98S
notes: full-length IgG; also called Ab 390
For B11, in experiment [1], the Kd was 0.391 nM. In experiment [2], the binding result is “no binding”. Besides, in experiment [3], the “Neut IC50 subtype A” value is 0.02 µg/mL. Moreover, the “Neut IC50 subtype B” value in experiment [4] was 0.04 µg/mL.

B12: ADI-25532 (antibody, V domains shown)
VH: QVQLVQSGGGLVKPGGSLRLSCAASGFTFSSYSMNWVRQAPGKGLEWVSSISSSSSYIYYADSVKGRFTISRDNAKNSLYLQMNSLRAEDTAVYYCARGSSSSWYYFDYWGQGTLVTVSS
VL: B10 VL with L4V, R95S, T98S, V99Y, G103T, L107V
notes: full-length IgG
Molecule B12 registered a Kd in experiment [1] of 1.56 nM. Further, in experiment [2], the binding result is reported as “no binding”. Also, the “Neut IC50 subtype A” value in experiment [3] came to 0.04 µg/mL. The “Neut IC50 subtype B” value in experiment [4] worked out at 0.05 µg/mL.

B13: ADI-25462 (antibody, V domains shown)
VH: B12 VH with Q1E, Q6E, D73H, Y105F, Y106C
VL: B10 VL with Q1S, S2Y, R95S, T98S, V99Y, G103T
notes: full-length IgG
With B13, the affinity in experiment [1], expressed as Kd, was 1.71 nM. The binding result in experiment [2] was “no binding”. In addition, the “Neut IC50 subtype A” value in experiment [3] was 0.15 µg/mL. Moreover, the “Neut IC50 subtype B” value in experiment [4] worked out at 0.11 µg/mL.

B14: ADI-24819 (antibody, V domains shown)
VH: B12 VH with Q1E, V5L, Q6E, G99E, S101G, S103G
VL: B10 VL with R95G, T98S, V99G, L107V
notes: full-length IgG
Regarding B14, binding in experiment [1] was put at a Kd of 9.44 nM. Also, the binding result in experiment [2] was “no binding”. In addition, the “Neut IC50 subtype A” value in experiment [3] was 4.33 µg/mL. Moreover, in experiment [4], the “Neut IC50 subtype B” value amounted to 6.28 µg/mL.

B15: ADI-25480 (antibody, V domains shown)
VH: EVQLVESGGGLVKPGGSLRLSCAASGFTFSSYSMNWVRQAPGKGLEWVSSISSSSSYIYYADSVKGRFTISRDNAKNSLYLQMNSLRAEDTAVYYCARGGYSYGAYYYYYMDVWGKGTTVTVSS
VL: QSVLTQPPSVSGAPGQRVTISCTGSSSNIGAGYDVHWYQQLPGTAPKLLIYGNSNRPSGVPDRFSGSKSGTSASLAITGLQAEDEADYYCQSYDSSLSGYWVFGGGTKVTVL
notes: full-length IgG; also called Ab 430
B15 returned a Kd in experiment [1] of 4.27 nM. Also, the binding result in experiment [2] is recorded as “no binding”. Further, in experiment [3], the “Neut IC50 subtype A” value worked out at 0.17 µg/mL. In addition, in experiment [4], the “Neut IC50 subtype B” value stood at 0.17 µg/mL.

B16: ADI-24831 (antibody, V domains shown)
VH: QVQLVESGGGLVKPGGSLRLSCAASGFTFSSYSMNWVRQAPGKGLEWVSSISSSSSYIYYADSVKGRFTISRDNAKNSLYLQMNSLRAEDTAVYYCARVPSDFWSGYYNDYWGQGTLVTVSS
VL: B15 VL with Y100S, V109L
notes: full-length IgG; also called Ab 393
Take B16: the Kd in experiment [1] turned out to be 6.23 nM. Besides, the binding result in experiment [2] was “no binding”. In experiment [3], the “Neut IC50 subtype A” value stood at 0.21 µg/mL. In addition, in experiment [4], the “Neut IC50 subtype B” value was 3.29 µg/mL.

B17: ADI-24805 (antibody, V domains shown)
VH: B15 VH with E1Q, E6Q, G99E, Y103S, G104S, A105S, Y106G
VL: B1 VL with W100S, G104T, L108V
notes: full-length IgG; also called Ab 370
B17 registered a Kd in experiment [1] of 4.88 nM. The binding result in experiment [2] is listed as “no binding”. In addition, the “Neut IC50 subtype A” value in experiment [3] was found to be 0.21 µg/mL. Moreover, in experiment [4], the “Neut IC50 subtype B” value was 0.71 µg/mL.
